The source of these data is IntAct's records for PubMed 15572661.

Sequences and labels used below:
B1: Androgen receptor (Homo sapiens), P10275 (parent)
chain: MEVQLGLGRVYPRPPSKTYRGAFQNLFQSVREVIQNPGPRHPEAASAAPPGASLLLLQQQQQQQQQQQQQQQQQQQQQQQETSPRQQQQQQGEDGSPQAHRRGPTGYLVLDEEQQPSQPQSALECHPERGCVPEPGAAVAASKGLPQQLPAPPDEDDSAAPSTLSLLGPTFPGLSSCSADLKDILSEASTMQLLQQQQQEAVSEGSSSGRAREASGAPTSSKDNYLGGTSTISDNAKELCKAVSVSMGLGVEALEHLSPGEQLRGDCMYAPLLGVPPAVRPTPCAPLAECKGSLLDDSAGKSTEDTAEYSPFKGGYTKGLEGESLGCSGSAAAGSSGTLELPSTLSLYKSGALDEAAAYQSRDYYNFPLALAGPPPPPPPPHPHARIKLENPLDYGSAWAAAAAQCRYGDLASLHGAGAAGPGSGSPSAAASSSWHTLFTAEEGQLYGPCGGGGGGGGGGGGGGGGGGGGGGGEAGAVAPYGYTRPPQGLAGQESDFTAPDVWYPGGMVSRVPYPSPTCVKSEMGPWMDSYSGPYGDMRLETARDHVLPIDYYFPPQKTCLICGDEASGCHYGALTCGSCKVFFKRAAEGKQKYLCASRNDCTIDKFRRKNCPSCRLRKCYEAGMTLGARKLKKLGNLKLQEEGEASSTTSPTEETTQKLTVSHIEGYECQPIFLNVLEAIEPGVVCAGHDNNQPDSFAALLSSLNELGERQLVHVVKWAKALPGFRNLHVDDQMAVIQYSWMGLMVFAMGWRSFTNVNSRMLYFAPDLVFNEYRMHKSRMYSQCVRMRHLSQEFGWLQITPQEFLCMKALLLFSIIPVDGLKNQKFFDELRMNYIKELDRIIACKRKNPTSCSRRFYQLTKLLDSVQPIARELHQFTFDLLIKSHMVSVDFPEMMAEIISVQVPKILSGKVKPIYFHTQ

The experiment covers variants of B1. The note with it: with daxx_human DAXX.
In the case of K388R;K521R, the “effect of a mutation on the interaction” value is “decreasing interaction strength”.
